The results in this text go back to patent US20240043517 (published 2024).

Substitutions are numbered along the chain they refer to.

What all share (test): SPR
Assay [1] addresses T1, mouse GDF-15 (mouse, UniProt Q9Z0J7).
T1 chain: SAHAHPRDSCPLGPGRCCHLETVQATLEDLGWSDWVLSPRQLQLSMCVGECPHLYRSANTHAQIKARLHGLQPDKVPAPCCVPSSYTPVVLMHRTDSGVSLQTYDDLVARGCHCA

In assay [2] the target is T2, rat GDF-15 (rat, UniProt Q9Z0J6).
T2 chain: T1 chain with A4L, Q63L, K75R, R110Q

Assay [3] has as its target T3, cynomolgus GDF-15 (cynomolgus monkey, UniProt G7PWZ3).
T3 chain: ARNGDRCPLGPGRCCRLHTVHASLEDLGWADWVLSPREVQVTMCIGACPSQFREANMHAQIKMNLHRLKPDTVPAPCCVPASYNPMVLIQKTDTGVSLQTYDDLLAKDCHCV

In assay [4] the target is T4, human GDF-15 (human, UniProt Q99988).
T4 chain: T3 chain with R6H, H21R, E54A, M63T, N64S, V112I

B1: CTL-002 (antibody, V domains shown)
VH: QITLKESGPTLVKPTQTLTLTCTFSGFSLSTSGMGVSWIRQPPGKGLEWLAHIYWDDDKRYNPTLKSRLTITKDPSKNQVVLTMTNMDPVDTATYYCARSSYGAMDYWGQGTLVTVSS
VL: DIVLTQSPSFLSASVGDRVTITCKASQNVGTNVAWFQQKPGKSPKALIYSASYRYSGVPDRFTGSGSGTEFTLTISSLQPEDFAAYFCQQYNNFPYTFGGGTKLEIKR
With B1, the Kd in assay [1] is 9.76 nM; in assay [2], 0.449 nM; in assay [3], 0.108 nM; in assay [4], 0.0383 nM.
